Numbering of substitutions follows the chain as printed.

In one assay the target is mouse CLDN18.2 (mouse) (UniProt P56857). As to the kind of experiment: FACS titration of AF647-labelled IgG on HEK293T mouse CLDN18.2 cells.
In assay [1] the target is Claudin-18.1 (CLDN18.1) (human) (UniProt P56856). As to the kind of experiment: FACS titration of AF647-labelled IgG on HEK293T CLDN18.1 cells.
Chain of Claudin-18.1 (CLDN18.1) (human) (P56856 whole entry): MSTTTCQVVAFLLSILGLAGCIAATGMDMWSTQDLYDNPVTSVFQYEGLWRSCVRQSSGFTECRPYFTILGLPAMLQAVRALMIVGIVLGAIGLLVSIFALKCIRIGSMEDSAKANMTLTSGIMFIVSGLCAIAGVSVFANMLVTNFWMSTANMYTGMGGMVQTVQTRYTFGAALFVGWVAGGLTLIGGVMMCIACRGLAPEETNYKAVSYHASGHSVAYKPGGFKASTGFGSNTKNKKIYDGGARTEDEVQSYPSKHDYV

B1: Ab 416 (antibody, V domains shown)
VH: EFQLQQSGPELVKPGASVKISCKASVYSFTGYNMNWVKQSNGKSLEWIGVINPNYGNTNYNQRFKGKATLTVDQSSSTAYMQLNSLTSEDSAVYYCARSEDYYNIRGASWGQGTLVTVSA
VL: QIVLTQSPAIMSASPGQKVTITCSASSTINYMHWYQQKLGSSPKLWIYDTSKLAPGVPARFSGSGSGTSYSLTISSMEAEDAASYFCHQWSSYPPTFGSGTKLELK
As a reminder, the EC50 is the concentration needed to bring the measured effect to its halfway point. Read a high EC50 as weaker potency. For B1, the EC50 with mouse CLDN18.2 (mouse) came out at 591 nM.

B2: Ab 307 (antibody, V domains shown)
VH: DVKLVESGGGLVKPGGSLKLSCAASGFTFSSYTMSWVRQTPEKRLEWVATIIIGGSYTYYPDSVKGRFTISRDNAKNTLYLQMSSLKSEDTAMYYCTRLVKGNAMDYWGQGTSVAVSS
VL: DIVMTQSPSSLTVTTGEKVTMSCKSSQSLLNSGNQKNYLSWYQQIPGQPPKLLFYWASTRESGVPDRFTGSGSGTDFTLTISNVQAEDLAVYYCQNDYSYPFTFGAGTKLELR
In turn, B2 gave an EC50 in the assay with mouse CLDN18.2 (mouse) of 68.8 nM. This EC50 lies about 8.6-fold lower than the previous one.

B3: Ab 432 (antibody, V domains shown)
VH: QIQLQQSGAELARPRASVKLSCKASGYTFTSDVISWVKQRPGQGLEWIGESYLRNGNTYYNENFKGKATLTADKSSSTAYMELRSLTSEDSAVYFCARSYYGNSFAYWGQGTLVTVSA
VL: DIVMTQSPSSLTVTAREKVTMNCKSTQSLLNSGNQKNYLTWYQQKPGQPPKLLIYWASTRESGVPDRFTGSGSGTDFTLTISSVQAEDLAVYYCQNAYYYPFTFGGGTKLEIK
With B3, in the assay with mouse CLDN18.2 (mouse), the EC50 came to 96.8 nM.

B4: Ab 409 (antibody, V domains shown)
VH: QVQLQQSGAELARPGASVKLSCKASGYTFTSYGISWVKQRTGQGLEWIGEISPRSGNTYYNEKFKGKATLTADKSSSTAYMELRSLTSEDSAVYFCATGVITTVIPTDWYFDVWGTGTTVTVSS
VL: DIQMTQTTSSLSASLGDRVTISCRASQDISNYLNWYQQKPDGTVKLLIYYTSRLHSGVPSRFSGSGSGTDYSLTISNLEPEDIATYYCQHYSKLPPTFGSGTKLEIK
B4 had an EC50 with mouse CLDN18.2 (mouse) of 1040 nM.

B5: Ab 358 (antibody, V domains shown)
VH: VVQLVESGGDFVQPGGSRKLSCAVSGFTFSSFGMHWVRQAPEKGLEWVAYISSGTTNIYYADTVKGRFTVSRDNPKNSLFLHMTSLRSEDTAMYYCVRSGYYGNSLDYWGQGTPLTVSS
VL: DIVMTQSPSSLTVTAGEKVTMSCKSSQSLFNSGNQRNYLTWYQQKPGQPPKLLIYWASTRESGVPDRFTGSGSGTGFTLTISSVQAEDLAFYYCQNVYIYPLTFGLGTKLELR
As to B5, the EC50 with mouse CLDN18.2 (mouse) was 40.6 nM; in assay [1], 1520 nM.

B6: Ab 360 (antibody, V domains shown)
VH: VVQLQQSGPELVKPGASVKMSCKASGYTFTSYLMHWVRQKPGLGLDWIGYINPYNDGTNYNAKFIDKATLTSDKTSSTAYMELSSLTSEDSAIYYCTRGDYWGQGTSVTVSS
VL: DIVMTQSPSSLAVTAGEQVTMSCKSSQSLLNSGNQKNYLTWYQQKPGQPPKLLIYWASIRQSGVPDRFTGSGSGTDFTLTISSVQAEDLAVYYCLNDYGFPLTFGAGTKLELK
As to B6, the EC50 in the assay with mouse CLDN18.2 (mouse) turned out to be 57.7 nM; in assay [1], 1760 nM.

B7: Ab 301 (antibody, V domains shown)
VH: VVQLQQSGPELVKPGASVKMSCKASGYTFTSFLIHWVRQKPGLGLEWIGYINPYDYGINYNVKFMDKVTLTSDKTSSTAYMELSSLTSADSAIYYCTRGDYWGQGTSVIVSS
VL: B6 VL with A15T, S22N, P46T, P49S, I59T
Consider B7, for which the EC50 in the assay with mouse CLDN18.2 (mouse) was found to be 1610 nM; in assay [1], 675 nM.

B8: Ab 347 (antibody, V domains shown)
VH: EVQLQQSGPELVKPGASVKMSCKASGYTFTSYLIHWVKQKPGQGLEWIGYINPYNDATYYNEKFKAKATLTSDKSSSTAYMELSSLTSEDTAIYYCTRGDYWSQGTSVTVSS
VL: B6 VL with A12T, Q18K, I59T, A90T, G99S
For B8, the EC50 with mouse CLDN18.2 (mouse) turned out to be 1350 nM; in assay [1], 1230 nM.

B9: Ab 331 (antibody, V domains shown)
VH: EVQLQQSGPELVKPGASVRMSCKASGYTFTSYIMHWVKQKPGQGPEWMGYINPYNDGTNYNEKFKDKATLTSDKSSSTAYMDLSSLTSEDSAVYYCTRGDYWGQGTSVTVSS
VL: B6 VL with A12T, Q18K, I54F, I59T, R60K, Q61K, G74R, G99S
On to B9, for which the EC50 with mouse CLDN18.2 (mouse) was 810 nM; in assay [1] it was 1680 nM.

These data come from patent US20260104418A1.
